Assay results reported in patent US20240400677A1 (ELECTRA THERAPEUTICS, published 2024).
Positions count from the first letter of the chain named.

T1: cynomolgus monkey SIRPγ on CHO cells (cynomolgus monkey, UniProt Q9P1W8 29-386 (human entry))
T1 construct: also called Cyno SIRPγ CHO
T1 chain: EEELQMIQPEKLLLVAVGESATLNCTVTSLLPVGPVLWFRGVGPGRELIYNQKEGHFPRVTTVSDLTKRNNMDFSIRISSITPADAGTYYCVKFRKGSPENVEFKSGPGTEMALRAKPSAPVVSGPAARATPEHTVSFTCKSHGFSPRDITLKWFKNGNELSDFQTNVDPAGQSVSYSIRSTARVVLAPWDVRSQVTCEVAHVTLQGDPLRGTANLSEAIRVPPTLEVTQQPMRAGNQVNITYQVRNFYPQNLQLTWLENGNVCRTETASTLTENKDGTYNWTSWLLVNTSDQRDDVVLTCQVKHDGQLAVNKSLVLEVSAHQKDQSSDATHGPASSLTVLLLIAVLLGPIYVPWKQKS

T2: cynomolgus monkey SIRPα on CHO cells (cynomolgus monkey, UniProt A0A2K5VYQ9 31-507)
T2 construct: whole, on cells; also called Cyno SIRPα CHO
T2 sequence: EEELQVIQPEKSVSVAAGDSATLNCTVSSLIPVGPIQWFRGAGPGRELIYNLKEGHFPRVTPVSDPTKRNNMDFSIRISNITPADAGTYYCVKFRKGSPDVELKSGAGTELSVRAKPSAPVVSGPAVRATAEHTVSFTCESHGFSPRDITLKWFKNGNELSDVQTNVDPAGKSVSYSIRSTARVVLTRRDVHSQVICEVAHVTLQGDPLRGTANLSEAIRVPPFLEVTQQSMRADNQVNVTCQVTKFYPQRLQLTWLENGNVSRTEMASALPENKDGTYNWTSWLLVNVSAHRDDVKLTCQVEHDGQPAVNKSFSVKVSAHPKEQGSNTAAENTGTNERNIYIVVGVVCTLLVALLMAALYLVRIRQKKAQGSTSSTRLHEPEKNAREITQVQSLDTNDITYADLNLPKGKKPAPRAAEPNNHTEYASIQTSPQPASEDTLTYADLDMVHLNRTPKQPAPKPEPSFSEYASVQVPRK

B1: Antibody 45 (scFv, V domains shown)
VH: QVQLVQSGAEVKKPGASVKVSCKASGYTFTSYGISWVRQAPGQGLEWMGWISAYNGNTNYAQKFQGRVTMTRDTSTSTVYMELSSLRSEDTAVYYCARGTYYDYIWGSYRYSWFDYWGQGTLVTVSS
VL: not shown
notes: scFv in crude PPE, V5/myc-tagged
B2: Antibody 39 (scFv, V domains shown)
VH: QVQLVQSGAEVKKPGASVKVSCKASGGTFSNYGFSWVRQAPGQGLEWMGWMSPSSGNTGYAQKFQGRVTMTRDTSTSTVYMELSSLRSEDTAVYYCARERSGSYFDYWGQGTLVTVSS
VL: EIVMTQSPATLSVSPGERATLSCRASQSVSSYLAWYQQKPGQAPRLLIYGTSTRATGIPARFSGSGSGTEFTLTISSLQSEDFAVYYCQQYGSLPFTFGQGTRLEIK
notes: as for B1
B3: Antibody 53 (scFv, V domains shown)
VH: QVQLVQSGAEVKKPGASVKVSCKASGHTFNNNYIHWVRQAPGQGLEWMGIINPSGGSTSYAQKFQGRVTMTRDTSTSTVYMELSSLRSEDTAVYYCARQIQDYGYYYYGMDVWGQGTTVTVSS
VL: B2 VL with S31K, G50A, T51I, T53A, T56A, G92Y, L94S, F96P, R103K, L104V
notes: as for B1
B4: Antibody 44 (scFv, V domains shown)
VH: QVQLVQSGAEVKKPGSSVKVSCKASGGTFSKIAVSWVRQAPGQGLEWMGLINPNSGGTDYAQKFQGRVTITADESTSTAYMELSSLRSEDTAVYYCAKDFRGGDYYYYGMDVWGQGTTVTVSS
VL: B2 VL with Y32N, T51A, G92N, S93T, L94Y, F96I, R103K, L104V
notes: as for B1
B5: Antibody 36 (scFv, V domains shown)
VH: QVQLVQSGAEVKKPGASVKVSCKASGYTFTDNYLHWVRQAPGQGLEWMGIIETSGGSTDYAQKFQGRVTMTRDTSTSTVYMELSSLRSEDTAVYYCARSFGGYSYDDAFDIWGQGTTVTVSS
VL: DIQMTQSPSSLSASVGDRVTITCQASQGISNYLNWYQQKPGKAPKLLIYAASSLQSGVPSRFSGSGSGTDFTLTISSLQPEDFATYYCQQSYSSPYTFGQGTKVEIK
notes: as for B1
B6: Antibody 51 (scFv, V domains shown)
VH: QVQLVQSGAEVKKPGASVKVSCKASGYTFTRYDINWVRQAPGQGLEWMGWMNPNSGNTGYAQKLQGRVTMTRDTSTSTVYMELSSLRSEDTAVYYCARERVGYCSSTSCLHPLDYWGQGTLVTVSS
VL: B5 VL with Q24R, S30R, Y32D, N34G, A50S, S53N, S93D, S94V, Y96L, Q100G
notes: as for B1
B7: Antibody 48 (scFv, V domains shown)
VH: QVQLVQSGAEVKKPGASVKVSCKASGYTFTSYYMHWVRQAPGQGLEWMGWMNPNSGNTGYAQKFQGRVTMTRDTSTSTVYMELSSLRSEDTAVYYCARDQMYSSYGMDVWGQGTTVTVSS
VL: B5 VL with Q24R, Q27E, G28S, S30T, Y32W, N34A, A50K, Q55E, S93G, S94T
notes: as for B1
B8: Antibody 52 (scFv, V domains shown)
VH: QVQLVQSGAEVKKPGASVKVSCKASGYTFTSYDINWVRQAPGQGLEWMGWISGYNGNTNYAQKFQGRVTMTRDTSTSTVYMELSSLRSEDTAVYYCARSFDWLLLLDYWGQGTLVTVSS
VL: DIQMTQSPSSLSASVGDRVTITCRASQSISSWLAWYQQKPGKAPKLLIYDATTLESGVPSRFSGSGSGTDFTLTISSLQPEDFATYYCQQYDSYPWTFGQGTKLEIK
notes: as for B1
B9: Antibody 38 (scFv, V domains shown)
VH: QVQLVQSGAEVKKPGASVKVSCKASGGTFSSYDINWVRQAPGQGLEWMGWMNPNSGNTGYAQKFQGRVTMTRDTSTSTVYMELSSLRSEDTAVYYCARDLTLYCSSTSCLDAFDYWGQGTLVTVSS
VL: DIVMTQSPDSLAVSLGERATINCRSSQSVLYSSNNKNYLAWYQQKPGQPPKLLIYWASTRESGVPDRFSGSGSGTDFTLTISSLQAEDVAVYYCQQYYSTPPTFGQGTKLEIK
notes: as for B1
B10: Antibody 75 (antibody, V domains shown)
VH: QVQLVQSGAEVKKPGSSVKVSCKASGGTFSNYAISWVRQAPGQGLEWMGGIIPIFGSTASYAQKFQGRVTITADESTSTAYMELSSLRSEDTAVYYCARGVGDDTLTDWGQGTLVTVSS
VL: DIVMTQSPLSLPVTPGEPASISCRSSQSLLHSNGYNYLDWYLQKPGQSPQLLIYAASSLQSGVPDRFSGSGSGTDFTLKISRVEAEDVGVYYCMQALQTPLTFGGGTKVEIK

Molecular target: T1, cynomolgus monkey SIRPγ on CHO cells
Assay: flow cytometry, myc-scFv PPE
Procedure: (§1) Selected antibodies were tested for binding to stably transfected human SIRPγ, SIRPαV1, or SIRPβ1 (co-transfected with DAP12) Chinese hamster ovary (CHO) cells via flow cytometry. A titration of select antibodies was added to the cells and detected using a fluorescently labelled secondary anti-rat IgG antibody or anti-human IgG antibody. Graphs depict the median fluorescence intensity (MFI) at each concentration. FIGS. 5A and 5G show the binding curves of select antibodies to human SIRPγ, cynomolgus monkey SIRPγ, human SIRPα, cynomolgus monkey SIRPα, human SIRPβ1, or cynomolgus monkey SIRPβl-expressing CHO cells detected using an anti-rat IgG antibody. FIGS. 5B-5F and 5H-5L show the binding curves of select antibodies to human SIRPγ, cynomolgus monkey SIRPγ, human SIRPα, cynomolgus monkey SIRPα, human SIRPβ1, or cynomolgus monkey SIRPβ1-expressing CHO cells detected using an anti-human IgG antibody. […] For select antibodies, each myc-tagged SIRPγ scFv antibody as crude PPE was incubated with each of the SIRP-expressing cell lines stated above along with the parental CHO-K1 cell line. […] Fold change value <2.0 is considered a non-binder.

MFI fold change over parental CHO [fold]	Binder
18.2	B1
39.5	B2
6.94	B3
26.7	B4
37.7	B5
18.8	B6
9.25	B7
16.3	B8
16.7	B9

The binders below were run against T3, human SIRPγ on stably transfected CHO cells (human, UniProt Q9P1W8 29-387) (assay: flow cytometry, myc-scFv PPE).
T3 construct: also called Human SIRPγ CHO
T3 sequence (Q9P1W8 29-387 limits assumed): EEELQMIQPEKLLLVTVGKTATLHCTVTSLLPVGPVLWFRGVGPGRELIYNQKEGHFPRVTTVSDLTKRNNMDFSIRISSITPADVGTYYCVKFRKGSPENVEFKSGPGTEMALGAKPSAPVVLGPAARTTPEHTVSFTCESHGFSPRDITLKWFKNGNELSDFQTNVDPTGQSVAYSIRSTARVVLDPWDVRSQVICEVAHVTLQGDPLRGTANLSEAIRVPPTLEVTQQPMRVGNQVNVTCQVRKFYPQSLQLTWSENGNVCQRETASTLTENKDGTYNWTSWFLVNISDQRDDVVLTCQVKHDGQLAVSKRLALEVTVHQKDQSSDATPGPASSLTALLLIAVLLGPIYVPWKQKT
Procedure: as §1

MFI fold change over parental CHO [fold]	Binder
24.3	B1
16.4	B2
5.97	B3
16	B4
42.4	B5
20	B6
12.1	B7
14.7	B8
14.8	B9

What follows are binders tested against T4, human SIRPγ-His monomer protein (human, UniProt Q9P1W8 29-360) (assay: BLI Octet, V5-scFv PPE captured, SIRP-His 500 nM).
T4 construct: also called hSIRPγ
T4 sequence (Q9P1W8 29-360 limits assumed): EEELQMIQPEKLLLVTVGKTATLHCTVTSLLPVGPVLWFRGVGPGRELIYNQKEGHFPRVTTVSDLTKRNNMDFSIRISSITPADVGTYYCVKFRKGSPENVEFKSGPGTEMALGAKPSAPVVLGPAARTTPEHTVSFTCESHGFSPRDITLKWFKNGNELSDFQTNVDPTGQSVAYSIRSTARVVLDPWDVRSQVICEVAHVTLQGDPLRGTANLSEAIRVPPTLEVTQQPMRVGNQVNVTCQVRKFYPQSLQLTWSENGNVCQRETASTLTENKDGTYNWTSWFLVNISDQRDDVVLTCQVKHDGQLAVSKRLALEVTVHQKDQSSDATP

kdis [s⁻¹]	Binder
> 0.01	B1
0.001 to 0.01	B2
> 0.01	B3
> 0.01	B4
< 0.001	B5
0.001 to 0.01	B6
0.001 to 0.01	B7
> 0.01	B8
0.001 to 0.01	B9

Each binder was assayed against T5, human SIRPβ1 on CHO cells (co-transfected with DAP12) (human, UniProt O00241 30-398) (assay: flow cytometry, CHO transfectants, anti-human IgG).
T5 construct: whole, on cells; co-transfected with DAP12; also called Human SIRPβ1 CHO
T5 sequence (O00241 30-398): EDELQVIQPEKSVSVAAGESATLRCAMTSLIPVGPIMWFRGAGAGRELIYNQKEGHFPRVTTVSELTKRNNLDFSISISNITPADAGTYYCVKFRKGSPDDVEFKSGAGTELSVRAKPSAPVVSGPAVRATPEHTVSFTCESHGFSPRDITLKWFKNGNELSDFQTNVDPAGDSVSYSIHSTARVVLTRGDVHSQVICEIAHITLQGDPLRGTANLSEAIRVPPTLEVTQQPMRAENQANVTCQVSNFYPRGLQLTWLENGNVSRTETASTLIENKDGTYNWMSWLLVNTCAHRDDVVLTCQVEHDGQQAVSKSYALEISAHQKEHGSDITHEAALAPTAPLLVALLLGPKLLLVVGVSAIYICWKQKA
Procedure: as §1

binding result	Binder
no binding (tested: about 20 µg/mL)	B10

These binders were tested against T2, cynomolgus monkey SIRPα on CHO cells (assay: flow cytometry, CHO transfectants, anti-human IgG).
Procedure: as §1

binding result	Binder
no binding (tested: about 20 µg/mL)	B10

These binders were tested against T5, human SIRPβ1 on CHO cells … (assay: flow cytometry).

binding result	Binder
no binding (tested: fold change <2.0)	B1
no binding (tested: fold change <2.0)	B2
no binding (tested: fold change <2.0)	B3
no binding (tested: fold change <2.0)	B4
no binding (tested: fold change <2.0)	B5
no binding (tested: fold change <2.0)	B6
no binding (tested: fold change <2.0)	B7
no binding (tested: fold change <2.0)	B8
no binding (tested: fold change <2.0)	B9

The binders below were run against T2, cynomolgus monkey SIRPα on CHO cells (assay: flow cytometry).

binding result	Binder
no binding (tested: fold change <2.0)	B1
no binding (tested: fold change <2.0)	B2
no binding (tested: fold change <2.0)	B3
no binding (tested: fold change <2.0)	B4
no binding (tested: fold change <2.0)	B5
no binding (tested: fold change <2.0)	B6
no binding (tested: fold change <2.0)	B7
no binding (tested: fold change <2.0)	B8
no binding (tested: fold change <2.0)	B9
